Data reported in patent US20150023979A1 (VALDOSPAN, published 2015).

Columns and labels:
[1] = molecular target: T1, HPV38 E7 protein (beta-papillomavirus), recombinant (His-TEV-E7 fusion from E. coli) (Human Papilloma Virus type 38 (HPV38), UniProt Q80908 1-100); experiment: ELISA and dot-blot
T1 construct: mature; also called HPVE7 38; VE7_HPV38; not shown: N-terminal 6x Histidine tag and TEV cleavage site of the vector
T1 sequence: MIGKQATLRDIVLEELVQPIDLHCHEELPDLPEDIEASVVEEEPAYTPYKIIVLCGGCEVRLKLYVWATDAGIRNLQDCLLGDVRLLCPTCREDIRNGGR

[2] = molecular target: T2, HPV5 E7 protein (beta-papillomavirus), recombinant (His-TEV-E7 fusion from E. coli) (Human Papilloma Virus type 5 (HPV5), UniProt P06932 1-103); experiment: ELISA and dot-blot
T2 construct: mature; also called VE7_HPV05; not shown: N-terminal 6x Histidine tag and TEV cleavage site of the vector
T2 sequence: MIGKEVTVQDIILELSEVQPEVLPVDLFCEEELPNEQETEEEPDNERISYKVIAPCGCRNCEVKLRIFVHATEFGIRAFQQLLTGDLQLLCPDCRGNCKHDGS

[3] = molecular target: T3, HPV6 E7 protein (low risk type), recombinant (His-TEV-E7 fusion from E. coli) (Human Papilloma Virus type 6 (HPV6), UniProt Q84292 1-98); experiment: ELISA and dot-blot
T3 construct: mature; the only HPV6 entry in the list of constructs is VE7_HPV6A; also called VE7_HPV6A; not shown: N-terminal 6x Histidine tag and TEV cleavage site of the vector
T3 sequence: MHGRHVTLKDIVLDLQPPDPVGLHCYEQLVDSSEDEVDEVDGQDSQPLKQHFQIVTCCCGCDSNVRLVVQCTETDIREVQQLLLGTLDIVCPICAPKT

[4] = molecular target: T4, HPV11 E7 protein (low risk type), recombinant (His-TEV-E7 fusion from E. coli) (Human Papilloma Virus type 11 (HPV11), UniProt P04020 1-98); experiment: ELISA and dot-blot
T4 construct: mature; also called VE7_HPV11; not shown: N-terminal 6x Histidine tag and TEV cleavage site of the vector
T4 sequence: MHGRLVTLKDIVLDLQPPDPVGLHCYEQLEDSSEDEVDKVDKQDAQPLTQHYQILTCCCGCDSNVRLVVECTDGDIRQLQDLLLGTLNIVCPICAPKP

[5] = molecular target: T5, HPV35 E7 protein, recombinant (His-TEV-E7 fusion from E. coli) (Human Papilloma Virus type 35 (HPV35), UniProt P27230 1-99, CKII phosphorylation of the consensus site serines in the antigen preparation of Example 2); experiment: ELISA and dot-blot, semiquantitative crossreactivity
T5 construct: mature; also called VE7_HPV35; not shown: N-terminal 6x Histidine tag and TEV cleavage site of the vector
T5 sequence: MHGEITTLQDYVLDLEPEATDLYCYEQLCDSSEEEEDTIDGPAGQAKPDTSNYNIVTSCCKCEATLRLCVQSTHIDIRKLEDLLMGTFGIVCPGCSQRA

[6] = molecular target: T6, HPV45 E7 protein, recombinant (His-TEV-E7 fusion from E. coli) (Human Papilloma Virus type 45 (HPV45), UniProt P21736 1-106, CKII phosphorylation of the consensus site serines in the antigen preparation of Example 2; biotin on primary amines in the SPR assay); experiment: as above
T6 construct: mature; also called VE7_HPV45; not shown: N-terminal 6x Histidine tag and TEV cleavage site of the vector
T6 sequence: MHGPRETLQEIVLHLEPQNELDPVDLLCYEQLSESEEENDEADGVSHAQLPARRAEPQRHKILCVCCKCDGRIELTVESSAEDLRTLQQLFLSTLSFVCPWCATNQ

[7] = molecular target: T7, HPV51 E7 protein, recombinant (His-TEV-E7 fusion from E. coli) (Human Papilloma Virus type 51 (HPV51), UniProt P26558 1-101, CKII phosphorylation of the consensus site serines in the antigen preparation of Example 2); experiment: as above
T7 construct: mature; also called VE7_HPV51; not shown: N-terminal 6x Histidine tag and TEV cleavage site of the vector
T7 sequence: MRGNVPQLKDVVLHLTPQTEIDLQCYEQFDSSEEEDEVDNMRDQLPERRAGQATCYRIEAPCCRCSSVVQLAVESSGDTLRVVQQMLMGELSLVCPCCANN

[8] = molecular target: T8, HPV56 E7 protein, recombinant (His-TEV-E7 fusion from E. coli) (Human Papilloma Virus type 56 (HPV56), UniProt P36833 1-105, CKII phosphorylation of the consensus site serines in the antigen preparation of Example 2); experiment: as above
T8 construct: mature; also called VE7_HPV56; not shown: N-terminal 6x Histidine tag and TEV cleavage site of the vector
T8 sequence: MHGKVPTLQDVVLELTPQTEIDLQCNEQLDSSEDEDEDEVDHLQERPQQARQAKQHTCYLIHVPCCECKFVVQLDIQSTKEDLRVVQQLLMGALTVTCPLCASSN

[9] = molecular target: T9, HPV18 E7 protein, recombinant (His-TEV-E7 fusion from E. coli) (Human Papilloma Virus type 18 (HPV18), UniProt P06788 1-105, CKII phosphorylation of the consensus site serines in the antigen preparation of Example 2; biotin on primary amines in the SPR assay); experiment: as above
T9 construct: mature; also called VE7_HPV18; not shown: N-terminal 6x Histidine tag and TEV cleavage site of the vector
T9 sequence: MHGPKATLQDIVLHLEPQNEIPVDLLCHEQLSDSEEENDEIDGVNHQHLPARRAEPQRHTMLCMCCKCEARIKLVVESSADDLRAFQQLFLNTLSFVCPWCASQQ

[10] = molecular target: T10, HPV33 E7 protein, recombinant (His-TEV-E7 fusion from E. coli) (Human Papilloma Virus type 33 (HPV33), UniProt P06429 1-97, CKII phosphorylation of the consensus site serines in the antigen preparation of Example 2; biotin on primary amines in the SPR assay); experiment: ELISA and dot-blot, semiquantitative crossreactivity (++ strong positive)
T10 construct: mature; also called VE7_HPV33; not shown: N-terminal 6x Histidine tag and TEV cleavage site of the vector
T10 sequence: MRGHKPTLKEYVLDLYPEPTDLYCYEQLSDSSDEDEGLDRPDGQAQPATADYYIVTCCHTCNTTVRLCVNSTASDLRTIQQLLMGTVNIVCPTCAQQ

[11] = molecular target: T11, HPV52 E7 protein, recombinant (His-TEV-E7 fusion from E. coli) (Human Papilloma Virus type 52 (HPV52), UniProt P36831 1-99, CKII phosphorylation of the consensus site serines in the antigen preparation of Example 2); experiment: as above
T11 construct: mature; also called VE7_HPV52; not shown: N-terminal 6x Histidine tag and TEV cleavage site of the vector
T11 sequence: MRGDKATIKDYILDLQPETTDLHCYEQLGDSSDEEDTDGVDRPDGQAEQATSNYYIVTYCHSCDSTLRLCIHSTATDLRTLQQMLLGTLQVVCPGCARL

[12] = molecular target: T12, HPV58 E7 protein, recombinant (His-TEV-E7 fusion from E. coli) (Human Papilloma Virus type 58 (HPV58), UniProt P26557 1-98, CKII phosphorylation of the consensus site serines in the antigen preparation of Example 2); experiment: as above
T12 construct: mature; also called VE7_HPV58; not shown: N-terminal 6x Histidine tag and TEV cleavage site of the vector
T12 sequence: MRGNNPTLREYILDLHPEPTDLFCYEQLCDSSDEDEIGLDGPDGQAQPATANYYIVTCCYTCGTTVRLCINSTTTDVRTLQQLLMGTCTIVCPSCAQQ

[13] = molecular target: T13, HPV31 E7 protein, recombinant (His-TEV-E7 fusion from E. coli) (Human Papilloma Virus type 31 (HPV31), UniProt P17387 1-98, CKII phosphorylation of the consensus site serines in the antigen preparation of Example 2); experiment: as above
T13 construct: mature; also called VE7_HPV31; not shown: N-terminal 6x Histidine tag and TEV cleavage site of the vector
T13 sequence: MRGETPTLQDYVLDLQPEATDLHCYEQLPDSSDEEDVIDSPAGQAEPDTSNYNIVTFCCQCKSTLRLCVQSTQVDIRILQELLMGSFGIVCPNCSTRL

[14] = molecular target: T6, HPV45 E7 protein, recombinant …; experiment: ELISA and dot-blot, semiquantitative crossreactivity; antigens denatured for this antibody
[15] = molecular target: T7, HPV51 E7 protein, recombinant …; experiment: as above
[16] = molecular target: T8, HPV56 E7 protein, recombinant …; experiment: as above
[17] = molecular target: T9, HPV18 E7 protein, recombinant …; experiment: as above
[18] = molecular target: T5, HPV35 E7 protein, recombinant …; experiment: ELISA and dot-blot, semiquantitative crossreactivity (++ strong positive); antigens denatured for this antibody
[19] = molecular target: T11, HPV52 E7 protein, recombinant …; experiment: as above
[20] = molecular target: T12, HPV58 E7 protein, recombinant …; experiment: as above

B1: ACAB167 (antibody, V domains shown)
VH: EVQLEESGGGLVQPKGSLKLSCTASGFPFNTYAMNWVRQAPGKGLEWVARIRTKSNNYATYYADSVKDRFTISRDDSQNMLYLQMNNLKTEDTAMYYCVRLYGYYFDYWGQGTTLTVSS
VL: DIVMTQSPEIMSASPGEKVTMTCSASSSVSFMFWYQQKSGTSPKIWIYDTSKLASGVPARFSGSGSGTSYSLTVSSMEAEDAATYYCQQWNSNPPTFGVGTKLELKR
notes: the printed entries run on into the first residues of the constant domains; also called HPV16E7 IgG2b antibody ACAB167
binding result [1]: no binding
binding result [2]: no binding
binding result [3]: no binding
binding result [4]: no binding
binding result [5]: no binding
binding result [6]: no binding
binding result [7]: no binding
binding result [8]: no binding
binding result [9]: no binding
binding result [10]: binds
binding result [11]: binds
binding result [12]: binds
binding result [13]: binds

B2: ACAB337 (antibody, IgG1, V domains shown)
VH: DVQLQESGPGLVKPSQSLSLTCTVTGHSITSDYAWNWIRQFPGNKLEWVAYISYSGGTGYNPSLKSRISITRDTSKPNQFFLQLNSVTTEDTATYYCACGDYYYGPRDYWGQGTSVTVSS
VL: DILLTQSPAILSVSPGERVSFSCRASQSIGTSIHWYQQRTNGSPRLLIKYASESISGIPSRFSGSGSGTDFTLSINSVESEDIADYYCQQSNYWPFTFGSGTKLEIKR
notes: also called HPV33E7 IgG1 antibody ACAB337
binding result [1]: no binding
binding result [2]: no binding
binding result [3]: no binding
binding result [4]: no binding
binding result [14]: no binding
binding result [15]: no binding
binding result [16]: no binding
binding result [17]: no binding
binding result [18]: binds
binding result [19]: binds
binding result [20]: binds
